Key:
[1] = target: T1, monovalent hVISTA-ECD (human VISTA extracellular domain with His tail) (human, UniProt Q9H7M9 33-193); assay: SPR, pH 7.4
T1 construct: analyte flowed over captured antibody; also called huVISTA-His
Protocol: (§1) Binding of several preparations of each of the '029 progeny clones and of the parent '029 antibodies, formatted as IgG1.3 antibodies, to human VISTA at pH 6.0 and 7.4 was measured by Surface plasmon resonance (SPR). SPR analysis was performed to measure koff and KD binding affinity measurements for VISTA Abs at acidic and neutral pHs using a Biacore® T100 instrument (GE Healthcare). Protein A (ThermoFisher Scientific catalog #21181) was diluted to 20 ug/ml in 10 mM sodium acetate pH 4.5 and immobilized onto flow cells of a CM5 biosensor following the manufacturer's amine coupling protocol (GE Healthcare), targeting 2,000 RU immobilization density of Protein A per flow cell. SPR experiments were conducted at 37° C. using PBST (137 mM sodium chloride, 2.7 mM potassium chloride, 10 mM phosphate buffer, 0.05% Tween® 20) running buffer at pH 7.4 and 6.0. Antibodies were diluted to 25 nM in PBST pH 7.4, and were captured across active biosensor flow cells at 5 ul/min for 60 seconds. […] Two 15 second injections of 10 mM glycine pH 1.5 were used to regenerate the Protein A capture surface between assay cycles. Rate constants ka (kₒₙ) and kd (koff) were derived from reference flow cell and 0 nM blank-subtracted sensorgrams, and were fit to a 1:1 binding model in Biacore® T200 Evaluation Software v.2.0. The affinity constant, KD was calculated as the ratio of rate constants koff/kₒₙ for each VISTA antibody. […]

[2] = target: T1, monovalent hVISTA-ECD (human VISTA …); assay: SPR, pH 6.0
Protocol: as §1

[3] = target: T1, monovalent hVISTA-ECD (human VISTA …); assay: SPR
Protocol: as §1

T1 sequence (Q9H7M9 other isoform, or with tags, fused parts or gaps limits assumed): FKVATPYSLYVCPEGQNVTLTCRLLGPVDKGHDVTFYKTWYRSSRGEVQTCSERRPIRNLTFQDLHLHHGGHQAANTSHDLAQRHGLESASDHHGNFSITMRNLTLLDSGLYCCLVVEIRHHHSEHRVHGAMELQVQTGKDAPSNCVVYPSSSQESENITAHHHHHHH

Kd [1] [nM]	koff [1] [s⁻¹]	kon [1] [M⁻¹ s⁻¹]	Kd [2] [nM]	koff [2] [s⁻¹]	kon [2] [M⁻¹ s⁻¹]	KD ratio (pH 7.4/pH 6.0) [3]	Binder
3.6	0.000987	274000	18	0.0411	2.29e+06	0.2	P1-064472 (41F11_VH_F27E) (antibody, V domains shown, Kabat positions; also called P1-064472-1) VH: QVQLVESGGGLVKPGGSLRLSCAASGETFSDYYMSWIRQAPGKGLEWVSYISNSGSPIYYADSVKGRFTISRDNAKNSLYLQMNSLRAEDTAVYYCARDLPGWYFDLWGRGTLVTVSS VL: EIVLTQSPATLSLSPGERATLSCRASQSVSSYLAWYQQKPGQAPRLLIYDASNRATGIPARFSASGSGTDFTLTISSLEPEDFAVYYCQQRNNWPRTFGQGTKVEIK
16.2	0.000675	41700	9.05	0.00649	717000	1.79	P1-064534 (41F11_VH_D31E/S35Y/Y50W/S55E/A60H/Y100E/F100aG) (antibody, V domains shown, Kabat positions; also called P1-064534-1) VH: QVQLVESGGGLVKPGGSLRLSCAASGFTFSEYYMYWIRQAPGKGLEWVSWISNSGEPIYYHDSVKGRFTISRDNAKNSLYLQMNSLRAEDTAVYYCARDLPGWEGDLWGRGTLVTVSS VL: EIVLTQSPATLSLSPGERATLSCRASQSVSSYLAWYQQKPGQAPRLLIYDASNRATGIPARFSASGSGTDFTLTISSLEPEDFAVYYCQQRNNWPRTFGQGTKVEIK
6.89	0.000381	55400	96.5	0.0121	126000	0.07	P1-064478 (41F11_VH_Y50E) (antibody, V domains shown, Kabat positions; also called P1-064478-1) VH: QVQLVESGGGLVKPGGSLRLSCAASGFTFSDYYMSWIRQAPGKGLEWVSEISNSGSPIYYADSVKGRFTISRDNAKNSLYLQMNSLRAEDTAVYYCARDLPGWYFDLWGRGTLVTVSS VL: EIVLTQSPATLSLSPGERATLSCRASQSVSSYLAWYQQKPGQAPRLLIYDASNRATGIPARFSASGSGTDFTLTISSLEPEDFAVYYCQQRNNWPRTFGQGTKVEIK
0.285	0.000158	553000	0.268	0.00192	7.16e+06	1.06	P1-064540 (41F11_VH_T28P/Y50W/S55E/A60H/Y100E) (antibody, V domains shown, Kabat positions; also called P1-064540-1) VH: QVQLVESGGGLVKPGGSLRLSCAASGFPFSDYYMSWIRQAPGKGLEWVSWISNSGEPIYYHDSVKGRFTISRDNAKNSLYLQMNSLRAEDTAVYYCARDLPGWEFDLWGRGTLVTVSS VL: EIVLTQSPATLSLSPGERATLSCRASQSVSSYLAWYQQKPGQAPRLLIYDASNRATGIPARFSASGSGTDFTLTISSLEPEDFAVYYCQQRNNWPRTFGQGTKVEIK
19.1	0.00223	117000	7.81	0.0178	2.28e+06	2.45	P1-064516 (41F11_Vk_V29D/A64G/R91T/R96Y) (antibody, V domains shown, also called P1-064516-1) VH: QVQLVESGGGLVKPGGSLRLSCAASGFTFSDYYMSWIRQAPGKGLEWVSYISNSGSPIYYADSVKGRFTISRDNAKNSLYLQMNSLRAEDTAVYYCARDLPGWYFDLWGRGTLVTVSS VL: EIVLTQSPATLSLSPGERATLSCRASQSDSSYLAWYQQKPGQAPRLLIYDASNRATGIPARFSGSGSGTDFTLTISSLEPEDFAVYYCQQTNNWPYTFGQGTKVEIK
0.768	0.000227	296000	0.167	0.000584	3.49e+06	4.6	P1-064528 (41F11_VH_D31E/Y50W/S55E/L96E/Y100E) (antibody, V domains shown, Kabat positions; also called P1-064528-1) VH: QVQLVESGGGLVKPGGSLRLSCAASGFTFSEYYMSWIRQAPGKGLEWVSWISNSGEPIYYADSVKGRFTISRDNAKNSLYLQMNSLRAEDTAVYYCARDEPGWEFDLWGRGTLVTVSS VL: EIVLTQSPATLSLSPGERATLSCRASQSVSSYLAWYQQKPGQAPRLLIYDASNRATGIPARFSASGSGTDFTLTISSLEPEDFAVYYCQQRNNWPRTFGQGTKVEIK
40.8	0.0123	301000	81.7	0.332	4.06e+06	0.5	P1-064502 (41F11_Vk_R96YA64G) (antibody, V domains shown, also called P1-064502-1) VH: QVQLVESGGGLVKPGGSLRLSCAASGFTFSDYYMSWIRQAPGKGLEWVSYISNSGSPIYYADSVKGRFTISRDNAKNSLYLQMNSLRAEDTAVYYCARDLPGWYFDLWGRGTLVTVSS VL: EIVLTQSPATLSLSPGERATLSCRASQSVSSYLAWYQQKPGQAPRLLIYDASNRATGIPARFSGSGSGTDFTLTISSLEPEDFAVYYCQQRNNWPYTFGQGTKVEIK
15.3	0.00341	223000	34.3	0.105	3.07e+06	0.45	P1-064486 (41F11_VH_F100aG) (antibody, V domains shown, Kabat positions; also called P1-064486-1) VH: QVQLVESGGGLVKPGGSLRLSCAASGFTFSDYYMSWIRQAPGKGLEWVSYISNSGSPIYYADSVKGRFTISRDNAKNSLYLQMNSLRAEDTAVYYCARDLPGWYGDLWGRGTLVTVSS VL: EIVLTQSPATLSLSPGERATLSCRASQSVSSYLAWYQQKPGQAPRLLIYDASNRATGIPARFSASGSGTDFTLTISSLEPEDFAVYYCQQRNNWPRTFGQGTKVEIK
6.61	0.00131	198000	22.3	0.0449	2.01e+06	0.3	P1-065312 (41F11_VH_F27E VK_A64G) (antibody, V domains shown, Kabat positions; also called P1-065312-1) VH: QVQLVESGGGLVKPGGSLRLSCAASGETFSDYYMSWIRQAPGKGLEWVSYISNSGSPIYYADSVKGRFTISRDNAKNSLYLQMNSLRAEDTAVYYCARDLPGWYFDLWGRGTLVTVSS VL: EIVLTQSPATLSLSPGERATLSCRASQSVSSYLAWYQQKPGQAPRLLIYDASNRATGIPARFSGSGSGTDFTLTISSLEPEDFAVYYCQQRNNWPRTFGQGTKVEIK
44.7	0.0145	325000	94.1	0.157	1.67e+06	0.48	P1-064500 (41F11_Vk_Q90DA64G) (antibody, V domains shown, also called P1-064500-1) VH: QVQLVESGGGLVKPGGSLRLSCAASGFTFSDYYMSWIRQAPGKGLEWVSYISNSGSPIYYADSVKGRFTISRDNAKNSLYLQMNSLRAEDTAVYYCARDLPGWYFDLWGRGTLVTVSS VL: EIVLTQSPATLSLSPGERATLSCRASQSVSSYLAWYQQKPGQAPRLLIYDASNRATGIPARFSGSGSGTDFTLTISSLEPEDFAVYYCQDRNNWPRTFGQGTKVEIK
0.196	0.000109	555000	0.245	0.00094	3.84e+06	0.8	P1-064526 (41F11_VH_D31E/Y50W/S55E/A60H/Y100E) (antibody, V domains shown, Kabat positions; also called P1-064526-1) VH: QVQLVESGGGLVKPGGSLRLSCAASGFTFSEYYMSWIRQAPGKGLEWVSWISNSGEPIYYHDSVKGRFTISRDNAKNSLYLQMNSLRAEDTAVYYCARDLPGWEFDLWGRGTLVTVSS VL: EIVLTQSPATLSLSPGERATLSCRASQSVSSYLAWYQQKPGQAPRLLIYDASNRATGIPARFSASGSGTDFTLTISSLEPEDFAVYYCQQRNNWPRTFGQGTKVEIK
26.1	0.00353	135000	7.18	0.0153	2.13e+06	3.64	P1-064484 (41F11_VH_L96E) (antibody, V domains shown, Kabat positions; also called P1-064484-1) VH: QVQLVESGGGLVKPGGSLRLSCAASGFTFSDYYMSWIRQAPGKGLEWVSYISNSGSPIYYADSVKGRFTISRDNAKNSLYLQMNSLRAEDTAVYYCARDEPGWYFDLWGRGTLVTVSS VL: EIVLTQSPATLSLSPGERATLSCRASQSVSSYLAWYQQKPGQAPRLLIYDASNRATGIPARFSASGSGTDFTLTISSLEPEDFAVYYCQQRNNWPRTFGQGTKVEIK
10.3	0.00207	200000	35.6	0.0485	1.36e+06	0.29	P1-064494 (41F11_Vk_A25EA64G) (antibody, V domains shown, also called P1-064494-1) VH: QVQLVESGGGLVKPGGSLRLSCAASGFTFSDYYMSWIRQAPGKGLEWVSYISNSGSPIYYADSVKGRFTISRDNAKNSLYLQMNSLRAEDTAVYYCARDLPGWYFDLWGRGTLVTVSS VL: EIVLTQSPATLSLSPGERATLSCRESQSVSSYLAWYQQKPGQAPRLLIYDASNRATGIPARFSGSGSGTDFTLTISSLEPEDFAVYYCQQRNNWPRTFGQGTKVEIK
2.36	0.000755	320000	14.2	0.0329	2.32e+06	0.17	P1-064480 (41F11_VH_A60H) (antibody, V domains shown, Kabat positions; also called P1-064480-1) VH: QVQLVESGGGLVKPGGSLRLSCAASGFTFSDYYMSWIRQAPGKGLEWVSYISNSGSPIYYHDSVKGRFTISRDNAKNSLYLQMNSLRAEDTAVYYCARDLPGWYFDLWGRGTLVTVSS VL: EIVLTQSPATLSLSPGERATLSCRASQSVSSYLAWYQQKPGQAPRLLIYDASNRATGIPARFSASGSGTDFTLTISSLEPEDFAVYYCQQRNNWPRTFGQGTKVEIK
